Test results reported in the supplement of paper PMC12764529.
± gives the half width of the 95% confidence interval.

Legend:
[1] = folding stability dG unfold from trypsin proteolysis; higher = more stable
Outline: (§1)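 Only designs with AlphaFold2 dimer inter-PAE above 15 were retained; each was a mini-protein under 80 residues with no cysteine, in a PA-tagged cDNA display construct. After digestion with trypsin and chymotrypsin and sequencing, K50 was inferred by Bayesian fitting of counts, and unfolding free energy was derived per protease or combined against a sequence-predicted unfolded-state K50 and a shared folded-state K50.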

[2] = folding stability dG unfold from chymotrypsin proteolysis; higher = more stable
Outline: as §1

[3] = folding stability dG unfold (combined trypsin and chymotrypsin); higher = more stable
Outline: as §1

Sequence	folding stability dG unfold [1]	folding stability dG unfold [2]	folding stability dG unfold [3]
SAGGSAGGSNLPAGQEIWFPIEIRIEMEMPVRDNGEPIWRMRMTMEHTIMLSIKVKPASPEDASAGGSAGGS [r20_14_TrROS]	3.75 ± 0.31 kcal/mol	5.11 ± 0.38 kcal/mol	4.88 ± 0.43 kcal/mol
SAGGSAGGSNPRYRIVLPISREQLEELGLTPEQVAEAIREAFPSLSPDTRFYFPEDGNLVVVGSAGGSAGGS [r12_50_TrMRF]	1.58 ± 0.024 kcal/mol	1.16 ± 0.012 kcal/mol	1.4 ± 0.026 kcal/mol
SAGGSAGGSNWVEIDIPHDDGRDIKITMWPDGYMQIEYPNGKPVYEIPVPPNMSIDEIAERILSAGGSAGGS [r12_990_TrROS]	0.641 ± 0.045 kcal/mol	0.498 ± 0.067 kcal/mol	0.624 ± 0.15 kcal/mol
SAGGSAGGSPDVVVPATLTFPLDAVAKAEFYPDGTVKVTFPDNTVALAKVEGGVVTDVRLAPASAGGSAGGS [r12_749_TrMRF]	0.0343 ± 0.031 kcal/mol	0.0478 ± 0.066 kcal/mol	0.11 ± 0.095 kcal/mol
SAGGSAGGSPELKISFPGFEGAEVELDPETNIATVRVKLPDKELELKVRIDDDGITIVEVREVSAGGSAGGS [r20_60_TrMRF]	1.95 ± 0.07 kcal/mol	1.86 ± 0.054 kcal/mol	1.94 ± 0.14 kcal/mol
SAGGSAGGSPETLTITVKEKPVRIEINGKVIEVKPGDTITIPKELANNIRIEVNEDGSITITPSAGGSAGGS [r20_150_TrROS_Hall]	1.92 ± 0.2 kcal/mol	1.24 ± 0.11 kcal/mol	1.6 ± 0.19 kcal/mol
SAGGSAGGSPETVTLTLTVTVKTVTLDPETGELTTTTHTVTLTLTLSKEDLEALLKSPELKKLSAGGSAGGS [r12_1015_TrROS_Hall]	1.84 ± 0.05 kcal/mol	3.09 ± 0.067 kcal/mol	2.76 ± 0.17 kcal/mol
SAGGSAGGSPGFIIRVRTWERDPKDGKWKPKRERPLTFPPDDADDFADKLNSESPNVEVEIMPSAGGSAGGS [r12_342_TrROS]	-0.0285 ± 0.15 kcal/mol	-0.259 ± 0.25 kcal/mol	-0.0797 ± 0.15 kcal/mol
SAGGSAGGSPGKPKTIPVEMVFFNPEDGYFFEMRSEIYVPPDGNLQIDISIELYPVPPNAPLISAGGSAGGS [r12_116_TrROS]	2.33 ± 0.2 kcal/mol	1.46 ± 0.039 kcal/mol	1.84 ± 0.18 kcal/mol
SAGGSAGGSPIVVDSPEDIEKAIEEAIASGAKSIVEVGPNRVRVVFVIPGEPKVFVLELPLNGSAGGSAGGS [r12_368_TrMRF]	1.42 ± 0.051 kcal/mol	1.93 ± 0.092 kcal/mol	1.79 ± 0.11 kcal/mol
SAGGSAGGSPLDIEIKMEFHPDHGYWEMEIKIPGNGREINIHYQYEGGKPQITSPEQILDAIKSAGGSAGGS [r20_131_TrROS]	0.622 ± 0.12 kcal/mol	1.5 ± 0.082 kcal/mol	1.24 ± 0.24 kcal/mol
SAGGSAGGSPLPYLTEDGEVQVVVRIDNSTGTTTVTLTGPDGKLLKTFSVSTDGPAFVVVRAGSAGGSAGGS [r12_960_TrMRF]	1.34 ± 0.034 kcal/mol	1.92 ± 0.028 kcal/mol	1.72 ± 0.064 kcal/mol
SAGGSAGGSPMPVIEEVPLNPVEEKPDPSSNTLTVKYPDGTYRILTKNPDGSYSFKVLPSSSISAGGSAGGS [r12_351_JUSTAS]	1.67 ± 0.034 kcal/mol	1.56 ± 0.098 kcal/mol	1.71 ± 0.089 kcal/mol
SAGGSAGGSPNDMKEVDFPIKFPKEKFKVKIWRHPDDPNRYYIRFPSNGAIFWFDPNGDIEPLSAGGSAGGS [r12_580_TrROS]	1.01 ± 0.056 kcal/mol	1.75 ± 0.085 kcal/mol	1.49 ± 0.1 kcal/mol
SAGGSAGGSPNTIEIWIQIPPGDPEKVEEIAKKLRDEGFKDIKVDEVHRNPDDSYYVEIKITVSAGGSAGGS [r12_91_TrROS]	1.55 ± 0.12 kcal/mol	1.12 ± 0.025 kcal/mol	1.42 ± 0.083 kcal/mol
SAGGSAGGSPPMKTYEHWIRFDSPEQAVEEVANHIQDHFGLEIKSVEIEYDPENGWVRVKIVISAGGSAGGS [r12_265_TrROS]	2.71 ± 0.075 kcal/mol	3.449 ± 0.029 kcal/mol	3.12 ± 0.14 kcal/mol

Sequence	folding stability dG unfold [1]	folding stability dG unfold [2]	folding stability dG unfold [3]
SAGGSAGGSPPPDIKVEVESYENPDGQRYYRVTITIDDGRPFDIWMPPGMSPSEAKNWLKDLLSAGGSAGGS [r12_1019_TrROS]	3.35 ± 0.08 kcal/mol	3.964 ± 0.035 kcal/mol	3.78 ± 0.094 kcal/mol
SAGGSAGGSPPPITIFTAYKDPEDGPYWMKRRKINPDNGNIEEEWYPADDLADHGLPPGDIFISAGGSAGGS [r12_123_TrROS]	-0.566 ± 0.88 kcal/mol	0.413 ± 0.33 kcal/mol	0.203 ± 0.2 kcal/mol
SAGGSAGGSPPPRFRVVVVFEDGTRREFDLTPEELVAFAEVVPDVVVEELPPGEVRITVRLPGSAGGSAGGS [r20_231_TrMRF]	2.45 ± 0.081 kcal/mol	3.11 ± 0.056 kcal/mol	2.91 ± 0.1 kcal/mol
SAGGSAGGSPVLIPVKTPEEIKKFLEKASSDAKFKVFNNKGEWKEVSKNEISVTPEEQFILVYSAGGSAGGS [r12_907_TrMRF]	0.437 ± 0.048 kcal/mol	0.662 ± 0.14 kcal/mol	0.578 ± 0.068 kcal/mol
SAGGSAGGSPVLLAESVTTLPDGTVVRTRLVRLPDGTYLRETETYPPGGAPARAVERFDDPRLASAGGSAGG [r6_299_JUSTAS]	1.66 ± 0.039 kcal/mol	3.505 ± 0.023 kcal/mol	3.07 ± 0.059 kcal/mol
SAGGSAGGSPVPVKVEKKPTKENKELIITYYPDGKVRVTTYTYDENGNKISEKEEIIPKSEVKLSAGGSAGG [r6_579_JUSTAS]	0.81 ± 0.032 kcal/mol	1.58 ± 0.032 kcal/mol	1.37 ± 0.061 kcal/mol
SAGGSAGGSPVPVKVVVKLPSSDKTIELTLYPPDVSPDSVVTVDLGGPAIDVKLLPGDVLELSPSAGGSAGG [r6_461_JUSTAS]	0.114 ± 0.034 kcal/mol	0.524 ± 0.039 kcal/mol	0.323 ± 0.097 kcal/mol
SAGGSAGGSPVVAIRAKSREELLAALEALLPPGQKLTPEQRQQLVDTLLANLDVKPGDTILVRSAGGSAGGS [r12_983_TrROS_Hall]	1.07 ± 0.064 kcal/mol	0.921 ± 0.034 kcal/mol	0.992 ± 0.12 kcal/mol
SAGGSAGGSPVVLYEVDPSTNSVTLTVEVLHPDGTPLRKEYTTNGDPLEAALRFAKAVLEEAGSAGGSAGGS [r20_33_TrMRF]	0.407 ± 0.21 kcal/mol	0.813 ± 0.17 kcal/mol	0.699 ± 0.12 kcal/mol
SAGGSAGGSSGMVKAEFGLVAPDGTPVSTRTLTFSSEEEIEEALAALPEFSLALVPDVKRGPLSAGGSAGGS [r12_182_JUSTAS]	-0.586 ± 0.38 kcal/mol	0.86 ± 0.13 kcal/mol	0.51 ± 0.14 kcal/mol
SAGGSAGGSSKNGKPKPTIKVEMPDKPGPHEIPIPESDPDEAKTLAEELAQKWPGVPVRIEPTSAGGSAGGS [r12_601_TrROS]	-0.293 ± 0.1 kcal/mol	0.989 ± 0.057 kcal/mol	0.582 ± 0.13 kcal/mol
SAGGSAGGSSKYIKFIIPANSPEAIEKAKELAEFIKKKYPGIKKIEVKYNPEKGYLEVIAEVESAGGSAGGS [r12_248_TrMRF]	4.08 ± 0.28 kcal/mol	3.87 ± 0.048 kcal/mol	3.96 ± 0.17 kcal/mol
SAGGSAGGSSLEEIAKKLGLKPGMRVRLSDGKVLEVPSLDDLKAALEAGLSLEELKKIEIEPVSAGGSAGGS [r12_430_TrROS_Hall]	1.13 ± 0.023 kcal/mol	1.68 ± 0.04 kcal/mol	1.42 ± 0.12 kcal/mol
SAGGSAGGSSLKPGQELELTLTLRVEVEVEVYENGKPVERYRVEREVRLTLRLKLPAASLEDLSAGGSAGGS [r20_14_TrROS_Hall]	4.06 ± 0.14 kcal/mol	5.73 ± 0.21 kcal/mol	5.55 ± 0.15 kcal/mol
SAGGSAGGSSLTLRLRLRLRVRVLDEETGELSEFEVEVELELRFEPAPPPPPPPLVLRDGKLVSAGGSAGGS [r12_140_TrROS_Hall]	3.43 ± 0.15 kcal/mol	4.53 ± 0.18 kcal/mol	4.34 ± 0.34 kcal/mol
